# Test results published in US9850293B2, “Targeting trastuzumab-resistant HER2+ breast cancer with a HER3-targeting nanoparticle” (priority 2014, dated 2017).
# Entries after “also recorded” stand apart in the source; their conditions may differ.
# B1: HerDox: non-covalent complex of HerPBK10, double-stranded oligonucleotide and intercalated Dox (Unit A+Unit B+Unit C) (conjugate)
# chain: SHLVKCAEKEKTFCVNGGECFMVKDLSNPSRYLCKCQPGFTGARCTENVPMKVQNQEKAEELYQKMRRAAMYEEGPPPSYESVVSAAPVAAALGSPFDAPLDPPFVPPRYLRPTGGRNSIRYSELAPLFDTTRVYLVDNKSTDVASLNYQNDHSNFLTTVIQNNDYSPGEASTQTINLDDRSHWGGDLKTILHTNMPNVNEFMFTNKFKARVMVSRLPTKDNQVELKYEWVEFTLPEGNYSETMTIDLMNNAIVEHYLKVGRQNGVLESDIGVKFDTRNFRLGFDPVTGLVMPGVYTNEAFHPDIILLPGCGVDFTHSRLSNLLGIRKRQPFQEGFRITYDDLEGGNIPALLDVDAYQASLKDDTEQGGGGAGGSNSSGSGAEENSNAAAAAMQPVEDMNDHAIRGDTFATRAEEKRAEAEAAAEAAAPAAQPEVEKPQKKPVIKPLTEDSKKRSYNLISNDSTFTQYRSWYLAYNYGDPQTGIRSWTLLCTPDVTCGSEQVYWSLPDMMQDPVTFRSTRQISNFPVVGAELLPVHSKSFYNDQAVYSQLIRQFTSLTHVFNRFPENQILARPPAPTITTVSENVPALTDHGTLPLRNSIGGVQRVTITDARRRTCPYVYKALGIVSPRVLSSRTFKKKKKKKKKK
# modifications: left off: small tags and cut ends
# Assays:
# [1] = HerDox stability under storage conditions; type: physicochemical; conditions: up to 12 days
# Experimental: FIG. 6 (A) illustrates conjugate stability under different storage conditions, or in serum. HerDox was incubated up to 12 days at 4° C., Room Temperature, or 37° C. Samples were filtered through ultrafiltration spin columns every other day.
# The inventors tested the stability of HerDox over 12 days under different storage temperatures: 40° C., room temperature, or 37° C. […] The inventors also examined HerDox stability in serum-containing media at 37° C. […] Dox retention in the conjugate was also assessed by eluting the conjugate from the beads at each time point.
# MDA-MB-231 (HER2−) = test: Targeted toxicity, cell survival by MTT assay; type: cell-based, human; conditions: 0.5 μM with respect to Dox; HerPBK10 0.1 μM; day 3
# Experimental: FIG. 7 illustrates targeted toxicity. […] Cell titer was determined by metabolic (i.e. MTT) assay. FIG. 7 upper panel illustrates the effect of HerDox on MDA-MB-231 (HER2−) and MDA-MB-435 (HER2+) cell survival. Relative surviving cell numbers are represented as a % of corresponding untreated cells. […] Relative survival (as % of untreated cells) is shown for Day 3 of treatment.
# N=3. […] Bar, about 4 μm. […] (E) compares HerDox and Dox on off-target tissue. […] Green fluorescence in nuclei indicates apoptosis (positive TUNEL stain).
# By three days, HerDox reduced HER2+ cell numbers by over 75% whereas HER2− cell survival was unaffected (FIG. 7). […] These findings emphasize the importance of targeting by showing that the untargeted drug affects nontarget (i.e. HER2−) cells. […] To test receptor targeting, the inventors used free heregulin ligand (Her or eHRG) as a competitive inhibitor. […] As a final in vitro challenge, the inventors tested whether HerDox induces toxicity specifically to HER2+ cells in a mixed culture of HER2+ and HER2− breast cancer cells. To do this, the inventors produced a HER2− cell line tagged with green fluorescent protein (GFP) for cell identification in the mixed culture (FIG. 9-A). […] Altogether, these findings indicate that HerDox has the capacity to preferentially target toxicity to HER2+ cells. […] In serum-containing media, no such loss from HerDox is detectable. […] Co-migration of HerPBK10 bands further verified that the conjugates remained intact in the cell media.
# JIMT-1 tumors = test: Trastuzumab-resistant tumor growth in vivo; parameters: species or system mouse; conditions: 0.004 mg Dox/kg/injection, twice-weekly IV
# Experimental: (§1) Tumor volumes were measured by calipers. Day 0 corresponds to first day of treatment. N=10 tumors per treatment.
# as §1
# The efficacy of HerDox was also examined on a cell line with pre-existing resistance.
# The contribution of HER3 to targeted toxicity was evaluated by assessing whether pre-adsorbing HerDox with a peptide comprising the ligand-binding domain of HER3 blocked cytotoxicity.
# [2] = tested on: BT474 trastuzumab-resistant cells; test: Tumor cell killing in culture
# Experimental: FIG. 21 depicts graph that show the results of the administration of HerDox on various cells. […] N=3. *=p<0.05 compared to parental. […] N=3.
# N=3. *, p<0.05 compared to parental. […] N=3. […] Parental and resistant cell lines were treated with HerDox−/+HER3 blocking peptide (ErbB3 human; Prospec), and tested for cell survival 48 hours later. […] Treatments were compared to mock (saline)-treatment. […] N=3. *, p<0.05 compared to parental. […] N=3.
# Parental cell lines were pre-treated with 0.5 mg/mL Tz for 24 hours before testing these cells for surface HER3 levels. […] Parental cell lines were pre-treated with 0.5 mg/mL Tz for 24 hours before testing these cells for HerPBK10 binding. […] SKBR3 Parental cells were treated with Tz at indicated concentrations (see upper X-axes) 4 and 24 hours before HerDox treatment and assayed for survival at 48-72 h after treatment. N=3. […] SK-474 Parental cells were treated with Tz at indicated concentrations (see upper X-axes) 4 and 24 hours before HerDox treatment and assayed for survival at 48-72 h after treatment. N=3. […] MDA-MB-435 non-resistant cells were treated with Tz at indicated concentrations (see upper X-axes) 4 and 24 hours before HerDox treatment and assayed for survival at 48-72 h after treatment. […] N=3. […] Tz-resistant cells were treated with Tz at indicated concentrations (see upper X-axes) 4 and 24 hours before HerDox treatment and assayed for survival at 48-72 h after treatment. N=3.
# N=3. *, p<0.05 compared to parental. […] N=3. […] N=3. […] Tumor volumes were measured by calipers. […] Tumor volumes were measured by calipers. […]
# MDA-MB-435 cells = test: Intracellular translocation of HerDox and Dox (microscopy); type: cell-based, human
# Experimental: Live (unfixed) cells were imaged by brightfield and fluorescence microscopy.
# Live (unfixed) cells were imaged by DIC and confocal fluorescence microscopy.
# FIG. 15 illustrates HerDox trafficking in breast cancer cells. Cells incubated with HerDox at 37° C. were fixed at the indicated time points and processed for immunofluorescence using an antibody against HerPBK10. Images were captured using confocal microscopy under fluorescence and brightfield. n, nucleus; Bar, ˜8 microns.
# SKOV3 = test: Cytotoxicity on cell lines (HerDox dose curves); type: cell-based, human; conditions: concentration yielding 50% reduction in cell survival, mean ± SD
molecule,measurement,setting,value
B1,product remaining intact,[1]; 4° C.,100%
same,effect of storage on drug incorporation,[1]; room temperature and 37° C.,appeared to enhance the incorporation of the drug
same,effect on HER2− cell survival,MDA-MB-231 (HER2−),unaffected
same,effect on JIMT-1 tumor growth,JIMT-1 tumors,ablated tumor growth
same,effect on BT474 resistant cells,[2]; 48-72 h after treatment,completely killed off; also recorded: complete cell death at all HerDox concentrations tested; also recorded: effectively eliminated
same,cytotoxicity at five-fold lower HerDox concentrations with trastuzumab pre-treatment,[2]; Tz-resistant BT474,further enhanced cytotoxicity
same,effect on cell survival at five-fold lower HerDox concentrations,[2]; Tz-resistant BT474,still had a potent effect on cell survival
same,intracellular location of Dox fluorescence,"MDA-MB-435 cells; 0 min of uptake, 0.5 μM",mostly at the cell periphery
same,localization of HerPBK10 and Dox (immunofluorescence),MDA-MB-435 cells; 30 and 60 min,increasing levels of Dox accumulate in the nucleus while the majority of HerPBK10 remains in the cytoplasm
same,colocalization of HerPBK10 and Dox (immunofluorescence),MDA-MB-435 cells; 15 min of uptake,HerPBK10 mostly colocalizes with Dox
same,intracellular location of Dox fluorescence,MDA-MB-435 cells; 60 min,accumulated in the nucleus
same,intranuclear pattern of Dox in live cells,"MDA-MB-435 cells; confocal, live cells",preferentially accumulates in nucleolar structures
same,EC50,SKOV3,0.18 ± 0.03 µM
